# Test: yeast display, Sf9 membrane polyspecificity reagent, FACS + sequencing; frameworks hold sequencing errors
# Procedure, shortened: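 Genes from sorted yeast were amplified by colony PCR, read by MiSeq 2 × 250 sequencing and filtered on CDR length. These cells carried a synthetic nanobody library in Saccharomyces cerevisiae BJ5465 and were sorted by FACS into low and high (top ~1%) gates on anti-HA and streptavidin fluorescence. Polyreactivity is labelled according to the gate of origin.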
row,Sequence,polyreactivity (PSR sort gate)
1,QVQLVESGGGLVQAGGSLRLSCAASGFTFTSNAMGWYRQAPGKEREFVADISNIGGDTTYADSVKGRFTISRDNAKNTVYLQMNSLKPEDTAVYYCKADFAFIENDYWGQGTQVTVSS,low polyreactivity
2,QVQLVESGGGLVQAGGSLRLSCAASGFTFTSNAMGWYRQAPGKEREFVADISNIGGDTTYADSVKGRFTISRDNAKNTVYLQMNSLKPEDTAVYYCNADFAFIENDYWGQGTQVTVSS,low polyreactivity
3,QVQLVESGGGLVQAGGSLRLSCAASGFTFTSNIMGWYRQATGKERELVADISASDGRTYYADSVKGRFTISRDNAMNTVYLQMNSLKPEDTAVYYCNVSSRRLRGLDYWGQGTQVTVSS,low polyreactivity
4,QVQLVESGGGLVQAGGSLRLSCAASGFTFTSYTMGWYRQAPGKERELVAAISYSGGNTYYADSVKGRFTISRDNAKNTVYLQMNSLKQEDTAVYYCAARYWYDSSNYSYDYWGQGTQVTVSS,low polyreactivity
5,QVQLVESGGGLVQAGGSLRLSCAASGFTFTSYVMGWSRQAPGKEREFVAAITRSAGGTYYADSVKGRFTISRDNAKNTVYLQMNSLKPEDTAVYYCAAVYRSGSRYYLGWYNYWGQGTQVTVSS,high polyreactivity
6,QVQLVESGGGLVQAGGSLRLSCAASGFTFTTNAMGWYRQAPGKERELVAAISKRGTRTYYADSVKGRFTISRDNAKNTVYLQMNSLKPEDTAVYYCAAASVAGDKFDYWGQGSQVTVSS,high polyreactivity
7,QVQLVESGGGLVQAGGSLRLSCAASGFTFTTYAMGWYRQAPGKEREFVAAITKRGGRTYYADSVKGRFTISRDYAKNTVYVQMNSLKPEDTAVYYCNKVVHSFPFPYRYDMDYWGQGTQVTVSS,high polyreactivity
8,QVQLVESGGGLVQAGGSLRLSCAASGFTFTTYAMGWYRQAPGKERELVARISRRSGSTYYADSVKGRFTISRDNAKYTVYLQMNSLKPEDTAVYYCNADVDRSTTIFDYWGQGTQVTVSS,high polyreactivity
9,QVQLVESGGGLVQAGGSLRLSCAASGFTFTWYAMGWYRQAPGKERELVASISRSGGSTYYADSVKGRFTISRDNAKNTVYLQMNSLKPEDTAVYYCAAEIWLEYVGYDYWGQGTQVTVSS,high polyreactivity
10,QVQLVESGGGLVQAGGSLRLSCAASGFTFTWYVMGWYRQAPGKERELVAAISRSGGSTYYADSVKGRFTISRDNAKNTVYLQMNSLKPEDTAVYYCAAVGTSRYDYWGQGTQGTVSS,high polyreactivity
11,QVQLVESGGGLVQAGGSLRLSCAASGFTFTYNAMGWYRKAPGKERELVAALTANGGGTNYADSVKGRFTISRDNAKNTVYLQMNSLKPEDTAVYYCAATIVVAVFESLGFYWYTEDNYWGQGTQVTVSS,low polyreactivity
12,QVQLVESGGGLVQAGGSLRLSCAASGFTFTYNAMGWYRQAPGKERELVAGISWRGGTTYYADSVKGRFTISRDNAKNTVYLQMNSLKPEDTAVYYCAARNYYRGSGWPSNRGYYWGQGTQVTVSS,high polyreactivity
13,QVQLVESGGGLVQAGGSLRLSCAASGFTFTYNDMGWYRQAPGKEREFVAAISSTGGSTNYADSVKGRFTISRDNAKNTVYLQMNSLKPEDTAGYYCATESYDSYGLYDYWGQGTQVTVSS,low polyreactivity
14,QVQLVESGGGLVQAGGSLRLSCAASGFTFTYNDMGWYRQAPGKEREFVAAISSTGGSTYYADSVKGRFTISRDNAKNTVYLQMNSLIPEDTAVYYCAAEDSWYWDAWFDYWGQGTQVTVSS,low polyreactivity
15,QVQLVESGGGLVQAGGSLRLSCAASGFTFTYNDMGWYRQAPGKEREFVAAISSTGGSTYYADSVQGRFTISRDNAKNTVYLQMNSLKPEDTAVYYCAAEDSWYWDAWFDYWGQGTQVTVSS,low polyreactivity
16,QVQLVESGGGLVQAGGSLRLSCAASGFTFTYYAMGWYRQAPGKERELVAGISRSGGSTYYADSVKGRFTISRDNAKNTVYLQMNSLKPEDTAVYYCAATAYSPRGKRYDSWGQGTQVTVSS,high polyreactivity
17,QVQLVESGGGLVQAGGSLRLSCAASGFTFTYYTMGWYRQAPGKERELVAAISYSGGSTYYADSVKGRFTISRDNAKNTVYLQMNSLKPEDTAVYYCNAVTSWAGSLDYWGQGTQVTVSS,high polyreactivity
18,QVQLVESGGGLVQAGGSLRLSCAASGFTFVDNAMGWYRQAPGKERELVAVIDFNDGTTYYADSVKGRFTISRDNAKNSVYLQMNSLKPEDTEVYYCNVDSSLILWVEYDYWGQGTQVTVSS,low polyreactivity
19,QVQLVESGGGLVQAGGSLRLSCAASGFTFVDYAMGWYRQAPGKERELVATINWDSGSTYADSVKGRFTISRDNAKNTVYLQMNSLKPEDSADYYCAADGDEIEVSFYSWGQGTQVTVSS,low polyreactivity
20,QVQLVESGGGLVQAGGSLRLSCAASGFTFVGNAMGWSRQAPGKERELVAAIRWSSGSTYYADSVKGRFTISRDNAKNTVYLQMNSLKPEDTAVYYCAADYWTGITPDAIGDYWGQGTQVTVSS,low polyreactivity
21,QVQLVESGGGLVQAGGSLRLSCAASGFTFVGNAMGWYRQAPGQERELVAAITRGGSTYYADSVKGRFTISRDNAKNTVYLQMNSLKPEDTAVYYCNAELPVHWSWYDYWGQGTQVNVSS,low polyreactivity
22,QVQLVESGGGLVQAGGSLRLSCAASGFTFVINDMGWYRQAPVKERELVADITSGGDTYYADSVKGRFTISRVNAKNTVYLQMYRLKPEDTAVYYCAADIYPDWIYLLYGYWGQGTQVNVSS,low polyreactivity

row,Sequence,polyreactivity (PSR sort gate)
1,QVQLVESGGGLVQAGGSLRLSCAASGFTFVIYAMGWYRQAPGKERELVAAIRSGGRTYYADSVKGRFTISRDNAKNTVYLQMNSLKPEDTAVYYCAAVPALKWYGYEYWGQGTQVTVSS,high polyreactivity
2,QVQLVESGGGLVQAGGSLRLSCAASGFTFVNYAIGWYRQAPGKERELVAAIRRSGSRTYYADSVKGRFTISRDNAKNTVYLQMNSLKPEDTAVYYCAAVWYRLYGYWGQGTQVTVSS,low polyreactivity
3,QVQLVESGGGLVQAGGSLRLSCAASGFTFVNYAMGWYRQAPGKERELVAASSRSGGRTYYADSVKGRFTISRDNAKNTVYLQKNSLKPEDTAVYYCARLLLSPEYGYWGQGTQVTVSS,high polyreactivity
4,QVQLVESGGGLVQAGGSLRLSCAASGFTFVPYAMGWYRQAPGKERELVAAISSRGDSTYYADSVKGRFTISRDNAKNTVYLQMNSLKPEDTAVYYCNARTTPHMDYWGQGTQVTVSS,low polyreactivity
5,QVQLVESGGGLVQAGGSLRLSCAASGFTFVPYAMGWYRQAPGKERETNADSVKGRFTISRDNAKNTVYLQRNSLKPEDTAVYYCAADVWASRRYDYWGQGTQVTVSS,low polyreactivity
6,QVQLVESGGGLVQAGGSLRLSCAASGFTFVRYTMGWYRQSPGKEREMVAAINRSGGNTYYADSVKGRFTISRDNAKNTVYLQMNSLKPEDTAVYYCAAGYYVQVSLKDYYWGQGTQVTVSS,high polyreactivity
7,QVQLVESGGGLVQAGGSLRLSCAASGFTFVSNDMGWYRQAPGKERELVAAIRYRGGDTYYADSVKGRFTISRDNAKNTVYLQMNRLKPEDTAVYYCAVDVATYTAGWYYHGYDYWGQGTQVTVSS,low polyreactivity
8,QVQLVESGGGLVQAGGSLRLSCAASGFTFVSNDMGWYRQEPGKERELVAAISQGGGSTYYADSVKGRFTISRDNAKNTVYLQINSLKPEDTAVYYCAAEDVYFGYDYWGQGTQVTVSS,low polyreactivity
9,QVQLVESGGGLVQAGGSLRLSCAASGFTFVSYAMGWYRQAPGKERELVAAISKRGGSTSYADSVKGRFTISRDNAKNTVYLQMNSLKPEDTAVYYCNKRSYAWSPHVDYWGQGTQVTVSS,high polyreactivity
10,QVQLVESGGGLVQAGGSLRLSCAASGFTFVSYAMGWYRQAPGKERELVAVISKSGSRTSYAESVKGRFTISRDNAKNTVYLQMNSLKPEDTAVYYCAVFYTRIGPRYDYWGQGTQVTVSS,high polyreactivity
11,QVQLVESGGGLVQAGGSLRLSCAASGFTFVVNAMGWYRQAPGKERELVATIRSNGGSTYYADSVKGRFTISRDNAKNTVYLQMNSLKPEDTAVYYCNTDRKHQSGRESAEMDYWGQGTQVTVSS,low polyreactivity
12,QVQLVESGGGLVQAGGSLRLSCAASGFTFVYKDMGWYRQAPGKEREFVAAISSGGSTYYADSVKGRFTISRDNAKNTVYLQMNSLKPEDTAVYYCARRNPGPKHARYGYWGQGTQVNVSS,high polyreactivity
13,QVQLVESGGGLVQAGGSLRLSCAASGFTFVYYAMGCYRQAPGKERELVAAISRSGATTFYADSVKGRFTISRDNAKNTVYLQMNSLKPEDTAVYYCAVDSYAYYYGYWGQGTQVTVSS,high polyreactivity
14,QVQLVESGGGLVQAGGSLRLSCAASGFTFVYYAMGWSRQAPGKERELVAAISRSGATTYYADSVKGRFTISRDNAKNTVYLQMNSLKPEDTAVYYCAAVYRHPRENWPDTRYGYWGQGTQVTVSS,high polyreactivity
15,QVQLVESGGGLVQAGGSLRLSCAASGFTFVYYAMGWYRQAPGKERELVAAISGRGGSTYYADSVKGRFTISRDNAKNTVYLQMNSLKPEDTAVYYCATTYSWYYVPYKPHIYYYWGQGTQVTVSS,low polyreactivity
16,QVQLVESGGGLVQAGGSLRLSCAASGFTFVYYAMGWYRQAPGKERELVATISGNGGRTYYADSVKGRFTISRDNAKNTVYLQMNSLKPEDTAVYYCAADVVTYLSYTLDYWGQGTQVTVSS,low polyreactivity
17,QVQLVESGGGLVQAGGSLRLSCAASGFTFWAYAMGWYRPAPGKERELVARISGSGGRTYYADSVKGRFTISRDNAKNTVYLQMNSLKREDTAVYYCNAPYFNWYGYWGQGTQVTVSS,high polyreactivity
18,QVQLVESGGGLVQAGGSLRLSCAASGFTFWAYAMGWYRQAPGKETELVAAISKTGGRTYYADSVKGRFTISRDNAKNTVYLQMISLKPEDTAVYYCAVDITGLYYPVDYWGQGTQVTVSS,high polyreactivity
19,QVQLVESGGGLVQAGGSLRLSCAASGFTFWDYTMGWYRQAPGKERELVAAITRSGGRTYYADSVKGRFTISRDNAKNTVYLQMNSLKPEDTAVYYCAAKIWSKDEKHDYWGQGTQVTVSS,high polyreactivity
20,QVQLVESGGGLVQAGGSLRLSCAASGFTFWFNAMGWYRQSRGTERELVPTIRRSGGTTYYADSVKGRFTISRDKAKNTVYLQMNSLKPEDTAVYYCAADDYYYPGTVYYFTPGYNYWGQGTQVTVSS,low polyreactivity
21,QVQLVESGGGLVQAGGSLRLSCAASGFTFWKYAMGWYRQAPGKERELVAAISVSGGRTYYADSVKGRFTISRDNAKNTVYLQMNSLKPEDTAVYYCNATPWRPYVGGEYWGQGTQVTVSS,high polyreactivity
